Laboratory results from doi:10.1101/2021.11.08.467681 (bioRxiv, 2021).

Target: the molecule itself
Assay: FRET or BRET

B1: FtsA WT (natural protein)
chain: MIKATDRKLVVGLEIGTAKVAALVGEVLPDGMVNIIGVGSCPSRGMDKGGVNDLESVVKCVQRAIDQAELMADCQISSVYLALSGKHISCQNEIGMVPISEEEVTQEDVENVVHTAKSVRVRDEHRVLHVIPQEYAIDYQEGIKNPVGLSGVRMQAKVHLITCHNDMAKNIVKAVERCGLKVDQLIFAGLASSYSVLTEDERELGVCVVDIGGGTMDIAVYTGGALRHTKVIPYAGNVVTSDIAYAFGTPPSDAEAIKVRHGCALGSIVGKDESVEVPSVGGRPPRSLQRQTLAEVIEPRYTELLNLVNEEILQLQEKLRQQGVKHHLAAGIVLTGGAAQIEGLAACAQRVFHTQVRIGAPLNITGLTDYAQEPYYSTAVGLLHYGKESHLNGEAEVEKRVTASVGSWIKRLNSWLRKEF
binding result: binds

B2: FtsA WT(1-405)-6xHis (domain or fragment)
chain: MIKATDRKLVVGLEIGTAKVAALVGEVLPDGMVNIIGVGSCPSRGMDKGGVNDLESVVKCVQRAIDQAELMADCQISSVYLALSGKHISCQNEIGMVPISEEEVTQEDVENVVHTAKSVRVRDEHRVLHVIPQEYAIDYQEGIKNPVGLSGVRMQAKVHLITCHNDMAKNIVKAVERCGLKVDQLIFAGLASSYSVLTEDERELGVCVVDIGGGTMDIAVYTGGALRHTKVIPYAGNVVTSDIAYAFGTPPSDAEAIKVRHGCALGSIVGKDESVEVPSVGGRPPRSLQRQTLAEVIEPRYTELLNLVNEEILQLQEKLRQQGVKHHLAAGIVLTGGAAQIEGLAACAQRVFHTQVRIGAPLNITGLTDYAQEPYYSTAVGLLHYGKESHLNGEAEVEKRVTASV
binding result: binds

B3: FtsA R286W (1-405)-6xHis (domain or fragment)
chain: MIKATDRKLVVGLEIGTAKVAALVGEVLPDGMVNIIGVGSCPSRGMDKGGVNDLESVVKCVQRAIDQAELMADCQISSVYLALSGKHISCQNEIGMVPISEEEVTQEDVENVVHTAKSVRVRDEHRVLHVIPQEYAIDYQEGIKNPVGLSGVRMQAKVHLITCHNDMAKNIVKAVERCGLKVDQLIFAGLASSYSVLTEDERELGVCVVDIGGGTMDIAVYTGGALRHTKVIPYAGNVVTSDIAYAFGTPPSDAEAIKVRHGCALGSIVGKDESVEVPSVGGRPPWSLQRQTLAEVIEPRYTELLNLVNEEILQLQEKLRQQGVKHHLAAGIVLTGGAAQIEGLAACAQRVFHTQVRIGAPLNITGLTDYAQEPYYSTAVGLLHYGKESHLNGEAEVEKRVTASV
binding result: binds
